Results from publication PMC12847774, “SERPINB3 enhances NPM1 sumoylation via inhibiting SENP3’s activity and promotes lung tumorigenesis” (Cell Death & Disease, 2025).

Target: T1, SENP3 purified protein (UniProt Q9H4L4 1-574)
T1 construct: SENP3; cloned into pET-28a(+) between BamHI and HindIII; also called wild-type SENP3; pET-28a (+)-SENP3; source: E. coli Rosetta (DE3), purified (Ni-NTA)
Assay: co-IP; in vitro immunoprecipitation with Flag antibody using purified recombinant proteins
Settings: both partners purified

T1 sequence (Q9H4L4 whole entry): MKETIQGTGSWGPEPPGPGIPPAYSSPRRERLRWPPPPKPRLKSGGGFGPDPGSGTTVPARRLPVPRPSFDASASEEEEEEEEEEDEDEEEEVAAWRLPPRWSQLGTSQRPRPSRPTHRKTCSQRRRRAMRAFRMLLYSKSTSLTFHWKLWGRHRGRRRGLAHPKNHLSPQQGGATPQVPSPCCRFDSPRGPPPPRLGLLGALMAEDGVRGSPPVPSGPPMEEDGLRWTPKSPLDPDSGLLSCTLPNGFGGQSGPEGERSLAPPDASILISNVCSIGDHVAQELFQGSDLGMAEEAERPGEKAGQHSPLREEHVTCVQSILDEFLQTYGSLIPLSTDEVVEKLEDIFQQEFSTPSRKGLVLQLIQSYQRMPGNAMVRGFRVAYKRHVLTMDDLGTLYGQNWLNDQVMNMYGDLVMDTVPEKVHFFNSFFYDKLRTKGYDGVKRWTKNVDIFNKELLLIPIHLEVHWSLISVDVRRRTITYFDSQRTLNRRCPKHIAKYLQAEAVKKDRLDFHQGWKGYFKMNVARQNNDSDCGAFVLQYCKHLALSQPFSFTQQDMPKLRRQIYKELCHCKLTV

B1: Flag-SERPINB3 purified protein (natural protein, UniProt P29508 1-390, looked up)
chain: MNSLSEANTKFMFDLFQQFRKSKENNIFYSPISITSALGMVLLGAKDNTAQQIKKVLHFDQVTENTTGKAATYHVDRSGNVHHQFQKLLTEFNKSTDAYELKIANKLFGEKTYLFLQEYLDAIKKFYQTSVESVDFANAPEESRKKINSWVESQTNEKIKNLIPEGNIGSNTTLVLVNAIYFKGQWEKKFNKEDTKEEKFWPNKNTYKSIQMMRQYTSFHFASLEDVQAKVLEIPYKGKDLSMIVLLPNEIDGLQKLEEKLTAEKLMEWTSLQNMRETRVDLHLPRFKVEESYDLKDTLRTMGMVDIFNGDADLSGMTGSRGLVLSGVLHKAFVEVTEEGAEAAAATAVVGFGSSPTSTNEEFHCNHPFLFFIRQNKTNSILFYGRFSSP
notes: SERPINB3; cloned into pET-28a(+) between BamHI and HindIII; the methods name only pET-28a (+)-SERPINB3; also called SCCA1; pET-28a (+)-SERPINB3; source: E. coli BL21(DE3), purified (Ni-NTA)
binding result: binds
